Numbering of substitutions follows the chain as printed. In names and notes the source's numbering stands. Read-outs that look alike come from different tables or passages of the source.

The term stoichiometry N denotes a count of units in the complex or per binding partner. For orientation: Kd means the constant that tells how readily two partners part at equilibrium.

Data set [1] concerns the molecule itself. Briefly: SEC-MALS; Superdex 75 or Superdex 200 Increase 10/300 GL, 0.5 ml/min; about 100 μl at ~3.0 mg/ml; Mad1^CTD dimer to Cdc20^N 1:1.2; proteins also run alone. Background: SEC sorts molecules by how far they enter the pores of the column.
In data set [2] the test system is Bub1CD1. Kind of data set: Binding of Mad1CTD mutants to Bub1CD1. The conditions noted are these: fluorescence anisotropy therefore not usable for this mutant. Here is the method: All reactions were completed in a buffer of 25 mM HEPES pH 7.75, 1 mM TCEP, 100 mM NaCl, 0.05% (v/v) Tween-20. […] Measurements were performed with a PheraStar plate reader FSX plate reader (BMG Labtech) using an optic module for λex = 485 nm, λem = 520 nm. Reactions were carried out in a total volume of 40 μl at 25 °C in a black, flat-bottom, non-binding surface 384-well plate (Corning). All experiments were performed as technical triplicates and data were analysed in PRISM 9.3.1 (GraphPad Software).
(In general: Polarisation of emitted light reports the rotation of a fluorescent probe.)

The test system of data set [3] is Bub1CD1. The note with it: cited from earlier work. The text has this: (§1) In this predicted model, the Cdc20^N α1 helix lies diagonally across the Mad1^CTD coiled-coil with its N-terminus close to the Mad1 RLK motif of one monomer, and the C-terminus contacting the head domain β-sheet of the adjacent monomer, in a manner that strikingly mimics the Bub1^CD1:Mad1^CTD interaction (Fig. 4d). Similar to Bub1^CD1, the interaction of Cdc20 α1 with Mad1^CTD would largely be driven by hydrophobic interactions (Fig. 4e). This model predicts that Gln3 and Glu7, and Asp9 of Cdc20 α1 interact with Arg617 and Lys619, respectively of the Mad1^CTD RLK motif (Fig. 4d). This is consi ...

In data set [4] the test system is spindle assembly checkpoint. The conditions noted are these: cited from earlier work.
Text: as §1

The target of data set [5] is Mad1^CTD phosphorylated at Thr716 (pMad1^CTD) (UniProt Q9Y6D9). Briefly: SEC-MALS; Superdex 75 or Superdex 200 Increase 10/300 GL, 0.5 ml/min; about 100 μl at ~3.0 mg/ml; Mad1^CTD dimer to Cdc20^N 1:1.2; proteins also run alone.
The target in data set [6] is T1, preformed AF488-Bub1^CD1:Mad1^CTD complex (Mad1^CTD unphosphorylated) (UniProt Q9Y6D9 597-718, Aurora Fluor 488 (AF488) on the N-terminal Cys; phosphoserine (pSer459); phosphothreonine (pThr461)).
T1 construct: Mad1 C-terminal domain (Mad1^CTD), residues 597-718; as m1; added N-terminal Cys (carries AF488) and Trp; as m7; Bub1 conserved domain 1 (CD1) peptide; also called Mad1^CTD:AF488-Bub1^CD1 complex; source: mixed from purified Mad1^CTD and synthetic peptide (20 nM: 2.1 µM); copies: 2 + 1
T1 sequence 1: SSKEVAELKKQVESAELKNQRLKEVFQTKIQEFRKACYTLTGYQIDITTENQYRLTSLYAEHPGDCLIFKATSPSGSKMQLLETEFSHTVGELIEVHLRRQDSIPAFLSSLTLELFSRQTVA
T1 sequence 2: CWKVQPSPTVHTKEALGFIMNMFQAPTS
Kind of data set: fluorescence polarisation; fluorescence anisotropy; Cdc20^N twofold series (100 μM to 6 nM, mixed 1:1) titrated into preformed AF488-Bub1^CD1:Mad1^CTD (20 nM: 2.1 µM); 25 mM HEPES pH 7.75, 1 mM TCEP, 100 mM NaCl, 0.05% Tween-20; 25 °C. The conditions noted are these: both partners purified.

Data set [7] deals with T2, preformed AF488-Bub1^CD1:pMad1^CTD complex (Mad1^CTD phosphorylated at Thr716) (UniProt Q9Y6D9 597-718, phosphothreonine at 716 (pThr716) | Aurora Fluor 488 (AF488) on the N-terminal Cys; phosphoserine (pSer459); phosphothreonine (pThr461)).
T2 construct: Mad1 C-terminal domain (Mad1^CTD), residues 597-718; as m2; added N-terminal Cys (carries AF488) and Trp; as m7; Bub1 conserved domain 1 (CD1) peptide; source: mixed from purified pMad1^CTD and synthetic peptide (20 nM: 2.1 µM); copies: 2 + 1
T2 sequence 1: T1 sequence 1
T2 sequence 2: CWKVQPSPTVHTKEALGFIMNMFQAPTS
The description is as above. The note with it: both partners purified.

For data set [8], the target named is Mad1^CTD phosphorylated at Thr716 (pMad1^CTD) (UniProt Q9Y6D9). Briefly: AUC; sedimentation equilibrium; 20 mM HEPES pH 7.5, 100 mM NaCl, 1 mM TCEP; 20 °C; 10,200, 12,200 and 21,000 rpm; up to four-fold molar excess of Cdc20^N.
Data set [9] concerns the target T3, Mad2 R133A prepared in the open state for NMR (O-Mad2) (UniProt Q13257 1-205, R133A).
T3 construct: Mad2; also called O-Mad2 with an R133A mutation; source: 15N-labelled in M9 minimal media
Kind of data set: NMR time course (1H,15N HSQC); 100 μM 15N O-Mad2 R133A with 200 μM Cdc20^MIM peptide; 25 °C; Trp75 and Trp167 indole resonances as reporters. The note with it: both partners purified.

T3 sequence (Q13257 whole entry R133A): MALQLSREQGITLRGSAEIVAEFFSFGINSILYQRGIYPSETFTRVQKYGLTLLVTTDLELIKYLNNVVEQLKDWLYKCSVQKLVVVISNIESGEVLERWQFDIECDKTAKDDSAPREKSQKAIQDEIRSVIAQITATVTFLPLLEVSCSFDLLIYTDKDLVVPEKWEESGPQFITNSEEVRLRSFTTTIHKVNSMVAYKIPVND

B1: Mad1^CTD phosphorylated at Thr716 (pMad1^CTD) (domain or fragment, UniProt Q9Y6D9 597-718, looked up)
chain: T1 sequence 1
modifications: phosphothreonine at 716 (pThr716)
notes: Mad1 C-terminal domain (Mad1^CTD), residues 597-718; Homodimer; A few peptides phosphorylated at Thr644 were also found; one phosphate per monomer by intact mass; also called Mad1^CTD pT716; Mad1^CTD pThr716
For the molecule B1, the “stoichiometry N” value in data set [1] is 2.

B2: Mad1^CTD R617E/K619D: Mad1CTD double mutant of the RLK motif (protein)
chain: T1 sequence 1 with R21E, K23D
For B2, the “Bub1CD1 binding of Mad1CTD mutant” value with Bub1CD1 [2] is recorded as “disrupted the binding of Bub1^CD1”.

B3: Mad1^CTD K619A: Mad1CTD K619A mutant, refs 21, 24 (protein, UniProt Q9Y6D9 597-718, looked up, variant K619A)
chain: T1 sequence 1 with K23A
As to B3, in the data set with Bub1CD1 [3], the “Bub1CD1 binding of Mad1CTD mutant” value is listed as “did not disrupt Bub1^CD1 binding significantly”. In [4], the checkpoint function result is “disrupted the checkpoint”.

B4: Cdc20^N (N-terminal truncation of Cdc20, residues 1-73) (domain or fragment, human, UniProt Q12834 1-73, looked up)
chain: MAQFAFESDLHSLLQLDAPIPNAPPARWQRKAKEAAGPAPSPMRAANRSHSAGRTPGRTPGKSSSKVQTTPSK
notes: human Cdc20, residues 1-73; also called Cdc20^1–73; wild-type Cdc20^N; source: E. coli Rosetta 2 (DE3), purified (TALON, TEV cleavage, HisTrap, Resource S, Superdex 75); not shown: His6, N-terminal, cleaved; MBP, N-terminal, cleaved
Consider B4, for which the stoichiometry N (Cdc20^N per pMad1^CTD dimer) in [5] amounted to 1. In addition, the equilibrium dissociation constant (Kd) in data set [6] came to 28.1 µM; in [7], 4.8 µM. The same molecule came in with a stoichiometry N (Cdc20^N per pMad1^CTD homodimer) in [8] of 1.

B5: Cdc20^MIM peptide (peptide)
peptide: NLNGFDVEEAKILRLSGKPQNAPEGYQNRLKVLY
notes: source: synthetic peptide (Designer Bioscience, UK)
Take B5: the binding result in [9] is given as “binds”.
